# Results reported in US20240092890A1 (JUNTENDO EDUCATIONAL FOUNDATION, published 2024).
# Substitutions are numbered along the chain they refer to.
# T1: Ins 5 type mutant CALR protein on UT-7/TPO CALR Ins 5 cells (UniProt P27797 18-417)
# T1 sequence (looked up): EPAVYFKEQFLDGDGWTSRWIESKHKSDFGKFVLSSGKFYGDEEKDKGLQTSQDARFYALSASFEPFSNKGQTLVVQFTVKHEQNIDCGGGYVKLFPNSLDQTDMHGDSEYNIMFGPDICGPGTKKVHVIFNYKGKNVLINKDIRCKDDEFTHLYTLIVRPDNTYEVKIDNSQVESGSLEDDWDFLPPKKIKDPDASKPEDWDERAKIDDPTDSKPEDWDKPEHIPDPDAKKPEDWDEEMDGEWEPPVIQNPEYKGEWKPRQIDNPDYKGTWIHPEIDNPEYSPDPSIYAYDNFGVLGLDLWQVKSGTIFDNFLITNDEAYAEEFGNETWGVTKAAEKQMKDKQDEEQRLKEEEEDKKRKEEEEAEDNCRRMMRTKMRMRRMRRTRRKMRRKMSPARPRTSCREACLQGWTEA
# T2: protein having an Fc region and a His-tag added to the N-terminus of SEQ ID NO: 1
# T2 construct: also called mutant CALR protein (antigen of the BLItz measurement); not shown: Fc region and His-tag at the N-terminus
# T2 chain: RRMMRTKMRMRRM
# B1: Antibody 101 (bispecific antibody, human IgG1, kappa, L234A L235A)
# chain 1: not shown
# chain 2: DIQMTQSPSFVSASVGDRVTITCLASEDIYSYLAWYQQKPGKAPKLLIFAANRLQDGVPSRFSGGGSGTGFTLTISSLQPEDFATYFCLQGSKFPYTFGQGTKLEINRTVAAPSVFIFPPSDEQLKSGTASVVCLLNNFYPREAKVQWKVDNALQSGNSQESVTEQDSKDSTYSLSSTLTLSKADYEKHKVYACEVTHQGLSSPVTKSFNRGECGGGGSGGGGSQVQLVQSGGGVVQPGRSLRLSCKASGYTFTRYTMHWVRQAPGKGLEWIGYINPSRGYTNYNQKVKDRFTISRDNSKNTAFLQMDSLRPEDTGVYFCARYYDDHYSLDYWGQGTPVTVSSGGGGSGGGGSGGGGSDIQMTQSPSSLSASVGDRVTITCSASSSVSYMNWYQQTPGKAPKRWIYDTSKLASGVPSRFSGSGSGTDYTFTISSLQPEDIATYYCQQWSSNPFTFGQGTKLQITR
# B2: Antibody 103 (bispecific antibody, human IgG1, kappa, L234A L235A)
# chain 1: not shown
# chain 2: B1 chain 2 with F10S, V11L, D56S, G65S, G70D, F87Y, Q100P, L104V, E105D, N107K
# B3: Antibody 100 (bispecific antibody, human IgG1, kappa, L234A L235A)
# chain 1: not shown
# chain 2: B1 chain 2
# B4: Antibody 104 (bispecific antibody, human IgG1, kappa, L234A L235A)
# chain 1: not shown
# chain 2: B1 chain 2 with F10S, V11L, D56S, G65S, G70D, F87Y, Q100P, L104V, E105D, N107K
# B5: Antibody 102 (bispecific antibody, human IgG1, kappa, L234A L235A)
# chain 1: not shown
# chain 2: B1 chain 2 with D56S
# B6: Antibody 88 (bispecific antibody)
# chain 1: not shown
# chain 2: DIQMTQSPSSLSASVGDRVTITCLASEDIYSYLAWYQQKPGKAPKLLIFAANRLQSGVPSRFSGSGSGTDFTLTISSLQPEDFATYYCLQGSKFPYTFGPGTKVDIKRTVAAPSVFIFPPSDEQLKSGTASVVCLLNNFYPREAKVQWKVDNALQSGNSQESVTEQDSKDSTYSLSSTLTLSKADYEKHKVYACEVTHQGLSSPVTKSFNRGEC
# B7: Antibody 109 (bispecific antibody)
# chain 1: not shown
# chain 2: B6 chain 2
# chain 3: DKTHTCPPCPAPEAAGGPSVFLFPPKPKDTLMISRTPEVTCVVVDVSHEDPEVKFNWYVDGVEVHNAKTKPREEQYNSTYRVVSVLTVLHQDWLNGKEYKCKVSNKALPAPIEKTISKAKGQPREPQVCTLPPSREEMTKNQVSLSCAVKGFYPSDIAVEWESNGQPENNYKTTPPVLDSDGSFFLVSKLTVDKSRWQQGNVFSCSVMHEALHNHYTQKSLSLSPGK
# B8: Antibody 106 (bispecific antibody)
# chain 1: QVQLVQSGAEVKKPGSSVKVSCKASGYTFTRNFIHWIRQAPGQGLEWIGWIFPGDADTEYNQKFSGRATITADKSTSTAYMELSSLRSEDTAVYYCARGNYNYEYFDYWGQGTMVTVSSASTKGPSVFPLAPSSKSTSGGTAALGCLVKDYFPEPVTVSWNSGALTSGVHTFPAVLQSSGLYSLSSVVTVPSSSLGTQTYICNVNHKPSNTKVDKRVEPKSCGGGGSQVQLVQSGGGVVQPGRSLRLSCKASGYTFTRYTMHWVRQAPGKGLEWIGYINPSRGYTNYNQKVKDRFTISRDNSKNTAFLQMDSLRPEDTGVYFCARYYDDHYSLDYWGQGTPVTVSSGGGGSGGGGSGGGGSDIQMTQSPSSLSASVGDRVTITCSASSSVSYMNWYQQTPGKAPKRWIYDTSKLASGVPSRFSGSGSGTDYTFTISSLQPEDIATYYCQQWSSNPFTFGQGTKLQITRHHHHHH
# chain 2: B6 chain 2 with S56D
# B9: Antibody 111 (bispecific antibody)
# chain 1: not shown
# chain 2: B6 chain 2
# chain 3: B7 chain 3
# B10: Antibody 92 (bispecific antibody)
# chain 1: not shown
# chain 2: B6 chain 2
# B11: Antibody 107 (bispecific antibody)
# chain 1: not shown
# chain 2: B6 chain 2 with S56D
# chain 3: B7 chain 3
# B12: Antibody 94 (bispecific antibody)
# chain 1: not shown
# chain 2: B6 chain 2 with S56D
# B13: Antibody 91 (bispecific antibody)
# chain 1: not shown
# chain 2: B6 chain 2
# B14: Antibody 89 (bispecific antibody)
# chain 1: not shown
# chain 2: B6 chain 2
# B15: Antibody 110 (bispecific antibody)
# chain 1: not shown
# chain 2: B6 chain 2
# chain 3: B7 chain 3
# B16: Antibody 90 (bispecific antibody)
# chain 1: not shown
# chain 2: B6 chain 2
# B17: Antibody 114 (bispecific antibody)
# chain 1: DIQMTQSPSSLSASVGDRVTITCLASEDIYSYLAWYQQKPGKAPKLLIFAANRLQSGVPSRFSGSGSGTDFTLTISSLQPEDFATYYCLQGSKFPYTFGPGTKVDIKGGGGSGGGGSGGGGSQVQLVQSGAEVKKPGSSVKVSCKASGYTFTRNFIHWIRQAPGQGLEWIGWIFPGDADTEYNQKFSGRATITADKSTSTAYMELSSLRSEDTAVYYCARGNYNYEYFDYWGQGTMVTVSSGGGGSGGGGSGGGGSDKTHTCPPCPAPEAAGGPSVFLFPPKPKDTLMISRTPEVTCVVVDVSHEDPEVKFNWYVDGVEVHNAKTKPREEQYNSTYRVVSVLTVLHQDWLNGKEYKCKVSNKALPAPIEKTISKAKGQPREPQVCTLPPSREEMTKNQVSLSCAVKGFYPSDIAVEWESNGQPENNYKTTPPVLDSDGSFFLVSKLTVDKSRWQQGNVFSCSVMHEALHNHYTQKSLSLSPGK
# chain 2: not shown
# Molecular target: T1, Ins 5 type mutant CALR protein on …
# Experiment: cell-based or functional assay
row,Binder,EC50 of cytotoxic activity (pM)
1,B1,1660
2,B2,399
3,B3,1080
4,B4,621
5,B5,850
6,B6,28
7,B7,3800
8,B8,2560
9,B9,6110
10,B10,47
11,B11,3870
12,B12,32
13,B13,230
14,B14,77
15,B15,2540
16,B16,269
17,B17,790

# Molecular target: T2, protein having an Fc region and a …
# Experiment: BLItz biolayer interferometry, Fc/His-SEQ ID NO: 1 protein on the biosensor
# Summary of the method: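 The Fc/His-tagged protein was loaded at 0.1 mg/mL onto Anti-Penta-HIS or Protein A biosensors. Antibodies were run at 500, 100 and 50 nM by biolayer interferometry, and the dissociation constant was derived from these binding curves.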
row,Binder,Kd [nM]
1,B1,< 0.001
2,B2,< 0.001
3,B3,< 0.001
4,B4,< 0.001
5,B5,< 0.001
6,B6,< 0.001
7,B7,9.91
8,B8,4.99
9,B9,12.8
10,B10,< 0.001
11,B11,12.1
12,B12,< 0.001
13,B13,< 0.001
14,B14,< 0.001
15,B15,5.33
16,B16,< 0.001
17,B17,6.06
